In patent publication US20220064329A1 (Novo Nordisk, published 2022):

Assays:
Experiment in all cases: SPR, ratio of KD to KD of WT
[1] = biological target: T1, FVII(a) variant N184A (human, UniProt P08709 61-466)
T1 construct: hFVII alanine variant in cell culture supernatant
T1 sequence: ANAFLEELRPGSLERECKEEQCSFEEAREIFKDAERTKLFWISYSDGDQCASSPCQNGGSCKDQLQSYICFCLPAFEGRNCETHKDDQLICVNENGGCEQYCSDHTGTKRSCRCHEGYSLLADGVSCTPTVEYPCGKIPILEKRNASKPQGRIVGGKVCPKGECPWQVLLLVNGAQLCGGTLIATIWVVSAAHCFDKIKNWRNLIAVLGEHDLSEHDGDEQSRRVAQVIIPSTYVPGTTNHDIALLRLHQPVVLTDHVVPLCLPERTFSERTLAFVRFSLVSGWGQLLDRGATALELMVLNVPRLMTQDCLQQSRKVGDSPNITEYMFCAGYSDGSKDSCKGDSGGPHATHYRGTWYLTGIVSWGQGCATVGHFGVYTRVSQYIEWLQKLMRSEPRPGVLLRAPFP
Description: (§1) The running buffer was prepared by diluting 10-fold the 10×HBS-P buffer (supplied by GE Healthcare) and supplemented with 1 mg/ml BSA and 5 mM CaCl2 to give 10 mM HEPES, 150 mM NaCl, 0.05% v/v Polysorbate 20, pH 7.4, 5 mM CaCl2, 1 mg/ml bovine serum albumin (BSA). […] Regeneration of the chip was achieved using 10 mM HEPES, 150 mM NaCl, 20 mM EDTA, 0.05 v/v Polysorbate 20, pH 7.4. Binding data were analysed according to a 1:1 Kinetic model and steady state analysis using BiaEvaluation 4.1 supplied by the manufacturer (Biacore AB, Uppsala, Sweden). Wherever possible, ka, kd and KD values from 1:1 kinetic fitting model are reported. […] An amino acid residue is considered a hot-spot residue if substitution of that amino acid residue with alanine results in an affinity reduction of ten (10) fold or more relative to the wild type.

[2] = biological target: T2, FVII(a) variant P251A (human, UniProt P08709 61-466)
T2 construct: hFVII alanine variant in cell culture supernatant
T2 sequence: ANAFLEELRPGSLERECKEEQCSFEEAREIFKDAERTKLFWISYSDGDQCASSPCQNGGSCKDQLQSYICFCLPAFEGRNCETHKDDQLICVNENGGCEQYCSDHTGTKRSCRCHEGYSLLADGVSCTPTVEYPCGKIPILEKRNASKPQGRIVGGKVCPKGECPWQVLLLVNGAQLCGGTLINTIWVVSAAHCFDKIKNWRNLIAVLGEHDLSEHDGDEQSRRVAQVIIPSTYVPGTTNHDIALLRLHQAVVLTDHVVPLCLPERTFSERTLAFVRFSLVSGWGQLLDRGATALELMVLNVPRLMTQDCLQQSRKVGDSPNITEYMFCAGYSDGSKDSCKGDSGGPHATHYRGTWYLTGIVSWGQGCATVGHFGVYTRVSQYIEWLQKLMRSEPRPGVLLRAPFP
Description: as §1

[3] = biological target: T3, FVII(a) variant Y118A (human, UniProt P08709 61-466)
T3 construct: hFVII alanine variant in cell culture supernatant
T3 sequence: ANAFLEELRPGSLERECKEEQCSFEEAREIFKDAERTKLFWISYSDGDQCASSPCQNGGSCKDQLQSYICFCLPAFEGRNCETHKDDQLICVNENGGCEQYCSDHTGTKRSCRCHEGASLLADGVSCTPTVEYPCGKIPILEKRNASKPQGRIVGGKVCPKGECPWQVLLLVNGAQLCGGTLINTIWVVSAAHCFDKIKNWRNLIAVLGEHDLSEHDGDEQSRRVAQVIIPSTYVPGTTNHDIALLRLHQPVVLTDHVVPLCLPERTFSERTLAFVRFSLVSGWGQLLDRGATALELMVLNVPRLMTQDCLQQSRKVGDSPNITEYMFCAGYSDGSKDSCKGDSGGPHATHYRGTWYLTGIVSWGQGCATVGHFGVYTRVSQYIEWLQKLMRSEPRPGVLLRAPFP
Description: as §1

[4] = biological target: T4, FVII(a) variant L120A (human, UniProt P08709 61-466)
T4 construct: hFVII alanine variant in cell culture supernatant
T4 sequence: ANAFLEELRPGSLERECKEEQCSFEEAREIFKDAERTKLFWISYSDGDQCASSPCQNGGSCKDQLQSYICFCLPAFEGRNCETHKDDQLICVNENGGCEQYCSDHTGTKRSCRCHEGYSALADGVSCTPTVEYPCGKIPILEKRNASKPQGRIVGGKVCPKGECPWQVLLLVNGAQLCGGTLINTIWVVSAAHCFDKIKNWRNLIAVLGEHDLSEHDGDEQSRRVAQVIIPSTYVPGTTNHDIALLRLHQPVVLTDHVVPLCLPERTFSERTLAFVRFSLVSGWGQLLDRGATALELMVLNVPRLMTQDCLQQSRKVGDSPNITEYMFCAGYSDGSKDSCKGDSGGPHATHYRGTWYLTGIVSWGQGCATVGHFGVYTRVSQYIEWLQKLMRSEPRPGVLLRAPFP
Description: as §1

[5] = biological target: T5, FVII(a) variant V131A (human, UniProt P08709 61-466)
T5 construct: hFVII alanine variant in cell culture supernatant
T5 sequence: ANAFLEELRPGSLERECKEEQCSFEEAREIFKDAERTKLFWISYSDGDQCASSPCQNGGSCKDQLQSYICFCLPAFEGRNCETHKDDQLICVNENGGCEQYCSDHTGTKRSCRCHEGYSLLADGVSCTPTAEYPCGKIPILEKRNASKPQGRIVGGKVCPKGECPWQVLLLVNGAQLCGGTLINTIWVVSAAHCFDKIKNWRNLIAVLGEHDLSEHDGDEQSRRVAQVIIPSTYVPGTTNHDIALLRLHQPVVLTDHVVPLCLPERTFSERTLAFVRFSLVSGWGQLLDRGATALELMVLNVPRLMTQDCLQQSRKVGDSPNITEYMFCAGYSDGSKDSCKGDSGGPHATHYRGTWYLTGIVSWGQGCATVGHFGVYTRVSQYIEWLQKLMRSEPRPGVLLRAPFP
Description: as §1

Fold diff (Variant/WT) [1]: 6.3 fold
Fold diff (Variant/WT) [2]: 2.8 fold
Fold diff (Variant/WT) [3]: 4.9 fold
Fold diff (Variant/WT) [4]: 2 fold
Fold diff (Variant/WT) [5]: 17.1 fold
B1: mAb0842(OA) (antibody, human IgG4 S228P, kappa)
heavy: QVQLQESGPGLVKPSQTLSLTCTVSGYSISSDSAWSWIRQPPGKGLEWIGYIQYSGSTNYNPSLKSRVTISRDTSKNQFSLKLSSVTAADTAVYYCARSVNYYGNSFAVGYWGQGTLVTVSSASTKGPSVFPLAPCSRSTSESTAALGCLVKDYFPEPVTVSWNSGALTSGVHTFPAVLQSSGLYSLSSVVTVPSSSLGTKTYTCNVDHKPSNTKVDKRVESKYGPPCPPCPAPEFLGGPSVFLFPPKPKDTLMISRTPEVTCVVVDVSQEDPEVQFNWYVDGVEVHNAKTKPREEQFNSTYRVVSVLTVLHQDWLNGKEYKCKVSNKGLPSSIEKTISKAKGQPREPQVYTLPPSQEEMTKNQVSLSCAVKGFYPSDIAVEWESNGQPENNYKTTPPVLDSDGSFFLVSRLTVDKSRWQEGNVFSCSVMHEALHNHYTQKSLSLSLGK
light: EIVLTQSPATLSLSPGERATLSCRASQGISDYLHWYQQKPGEAPRLLIKYTSQPATGIPARFSGSGSGTDFTLTISSLEPEDFAVYYCQNGHSFPLTFGQGTKLEIKRTVAAPSVFIFPPSDEQLKSGTASVVCLLNNFYPREAKVQWKVDNALQSGNSQESVTEQDSKDSTYSLSSTLTLSKADYEKHKVYACEVTHQGLSSPVTKSFNRGEC
chain: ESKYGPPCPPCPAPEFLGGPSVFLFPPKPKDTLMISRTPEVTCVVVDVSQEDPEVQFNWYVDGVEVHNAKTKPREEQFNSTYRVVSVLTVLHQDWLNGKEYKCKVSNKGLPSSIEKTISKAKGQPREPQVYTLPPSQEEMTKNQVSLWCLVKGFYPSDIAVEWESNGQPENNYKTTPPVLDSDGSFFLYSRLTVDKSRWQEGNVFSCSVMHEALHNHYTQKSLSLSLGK
notes: also called monovalent humanized 11F2 antibody; one-armed anti-FVII(a) antibody
